Assay: yeast display, Sf9 membrane polyspecificity reagent, FACS + sequencing; frameworks hold sequencing errors
In short: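 After 36–48 hours of galactose induction, yeast (Saccharomyces cerevisiae BJ5465) displaying a synthetic nanobody library were stained at 4 °C for 1 hour with 10% biotinylated, detergent-solubilized Sf9 membrane reagent. Streptavidin microbeads enriched the stained cells before FACS sorting into low and high (top ~1%) gates on anti-HA and streptavidin fluorescence. Each clone's polyreactivity label reflects its gate of origin.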

Sequence | polyreactivity (PSR sort gate)
QVQLVESGGGLVQAGGSLRLICAASGRTFAYYAMGWYRQAPGKERELVAAISSAGRTYYADSVKGRFTISRDNAKNTVYLHMNSLKPEDTSDYYCAVRWLTQFNGRYGSWGQGTQVTVSS | high polyreactivity
QVHLVESGGGLVQAGGSLRLSCAASGSTFPRYSMGWYRQAPGTERELVAAITQSGGRTYYADSVKGSFTISRDNAKNTVYLQMNSRKPEDTAVYYFAAEDGLRGNRLYYWGHGTQVTVSS | high polyreactivity
QVQLVESGGGLVQAGGSLRLSCAASGSTFWPNAMGWYRQAPGKERELVAGITTSSGSTFYADSVKGRFTISRDNAKNTVYLQMNSLKPADTAVYYCNARVRRRRYKYDYWGQGTQVTVSS | high polyreactivity
QVQLVEAGGGLVQAGGSLRLSCASSGSIITVYDMGWYRQPPGKERELVATITGSDGRTDYADSVKGRFTISRDNAKNTVYLQMNSLKPEDTAVYYCAAHVFQWKNRQSLLFDQGYYWGQGTQVTVSS | low polyreactivity
QVQLVESGGGLVQAGGSLRLSCAASGFTFKSYAMGWYRPAPGKERELVAGITRTGVSTYYADSVKGRFTISRDNAKNTVYLLMNSLKPEDTAVYYCAAGIRHIYQSYAFYKFDYWGQGTQVTVSS | high polyreactivity
QVQLVESGGGLVQAGGSLRISCAASGSIFPYNDMGWYRQAPGKERELVAVITSSGGSTYYADSVKGRFTISRDNAKNTVYLQMNSLKPEDTAVYYCAARGYNYYFGGYDYWGQGTQVTVSS | low polyreactivity
QVQLVESGGGLVQAGGSLRLSCAASWYTMGWYRQAPGKERELVAAITGGGSTNYADSVKGRFTISRDNAKNTVYLQMNSLKPEDTAVYYCAKTRVLLNSYSYNIIYDYWGQGTQVTVSS | low polyreactivity
QVQLVESGGGLVQAGGSLRLSCAASGSIFEYNGMGWYRQAPGKERELVAAITTTGTTDYADSVKGRFTISRDNAKNTVYLEMNSLIPEDTSVFYCAADYTYYYKGEYEYWGQGTQVTVSS | low polyreactivity
QVQLVESGGGLVQAGGSLRLSCAASVFNFIYYTMGWYRPAPGKERELVAAISWSGGGTYYADSVKGRFTISRDNAKNTVYLLMNRLKPEDTAVYYCAAYWYVSSRDFEYWGQGTQVTVSS | high polyreactivity
QVQLVESGGGLVQAGGSLRLSCAASGRTFKYYAMGWYRQAPGKERELVAASTTGGSTHYADSVKGRFTISRDNAKNTVYLQMNSLKPEDTAVYYCAAGPFARYDYWGQGTQVTVSS | low polyreactivity
QVQLVESGGGLVQAGGSLRLSCAASGRTFFRNAMGWYRQAPGKERELVAAISSSGGSTYADSVKGRFTISRDNAKNTVYLQMNSLKPEVTAVYYCATRFQYTRTWYSRKYDYWGQGTQVTVSS | high polyreactivity
QVQLVESGGGLVQAGGSLRLSCAASGSTFYYVNAMGWYRQAPGKEREFVAAISSSSGSTYYADSVKGRFTISRDNAKNTVYLQMNSLKPEDTAVYYCAKVPRYYKSYYWGQGTQVTVSS | high polyreactivity
QDQLEDSGGGLVQAGGSLRLICAASGSIFDTYAMGWYRQAPGKERELVATISWSGDSTYYADSVKGRFTISRDNAKNTVYLQLNSLKPEDTAVYYCAATTDALVGRPRYDYWGQGTQVTVSS | low polyreactivity
QVQLVESGGGLVQAGGSLRLSCAASGSTFPYNTMGWYRQAPGKEREFVAAITGDGGTTYYADSVKGRFTISRDNAKNTVYLQMNSLKPEDTAVYYCAVPYPAEGYGGDYWGQGSQVTVSS | low polyreactivity
QVQLVESGGGLVQAGGSLRLSCAASGSTFPRNAMGWYRQAPGKERELVAAISGRGVRTYYADSVKGRFTISRDNAKNTVHLQMNSLKPEDTAVYYCAASRGKGVGLAYDYWGQGTQVTVSS | high polyreactivity
QVQLVESGGGLVQAGGSLRLSCAASGSTFAINARGWYRQAPGKERELVAAISSSGSTNYADSVKGRFTISRDNAKITVYLQMNSLKPEDTAVYYCAATGYRVYGFEFGYWGQGTQVTVSS | low polyreactivity

Sequence | polyreactivity (PSR sort gate)
QVQLVESGGGLVQAGGSLRLSCAASGITFYVYAMGWYRQAPGKERELVAAISRRGGSTSYADSVKGRFTISRDNAKNTVYLQMNSLKPEDTAVYYCAKDTTYYQVYGYGYDYWGQGTQVTVSS | low polyreactivity
QVQLVESGGGLVQAGGSLRLSCAASGSIFYLYAMGWYRQAPGKERELVAGITWSGGRTYYADSVKGRFTISRDNAKNTVYLQMNSLKPEDTAVYYCAAYASRYRYGYWGQGTQVTVSS | high polyreactivity
QVQLVESGGGLVQAGGSLRLSCAASGSTFIFYAMGWYRQAPGKERELVASITSRAASTYYADSVKGRFTFSRDNAKNTVYFQMNSLKPEVTAVYYCAANFSYTLFWWSSFLLYVYWGQGTQVTVSS | low polyreactivity
QVQLVESGGGLVQAGGSLRLSCAASGRIFQYNPMGWYIQAPGKERELVADITWIGGSTYADSVKGRFTISRDTAKNTVYLQMNSLKPEDTAVYYCNARYIYRFDYWGQGSQVTVSS | low polyreactivity
QVQLVESGGGLVQAGGSLRLSCAASGSTFQSYAMGWYRQAPGKERELVASITRTGGTTYYADSVKGRFTISRDNAKNTVYLQMNSLKPEDTAVYYCNADLGQPISLDDFDYWGQGTQVTVSS | low polyreactivity
QVQHVDSGGGLVQEGGSLRLICAASGSIFEQYTMGWYIQAPGKERELVAAISRRSGRTYYADSVKGRFTISRDNAKNTVYLQMNSLKPADTAVYYCAAQHAIYRNPGLDDYWGQGTQVTVSS | high polyreactivity
QVQLVESGGGLVQAGGSLRLSCAASGFTFSSNAMGWYRQAPGKERELVADINWSGGRTYYADSVKGRFTISRDNAKYTVYLQMNSLKPEDTAVYYCAAVLSWRQYYREYDYWGQGTQVTVSS | high polyreactivity
QVQLVESGGGLVQAGGSLRLSCAASGRTLARNAMGWDRQAPGKERELVASINGRTTRTYYADSVKGRFTISRDNAKNTVYLQMNSLKPEDTAVYYCAADPPGYVYGKRYYWGQGTQVTVSS | high polyreactivity
QVQLVESGGGLVQAGGSLRLSCAASGITFDDYDMGWYIQAPGKEREFVAAISFSGSSTYYADSVKGRFTISRDNAKNTVYLQMNSLKPEDTAVYYCAAVTTGTITSKYNYWGQGTQVTVSS | low polyreactivity
QVQLQESGGGLVRAGGSLRLSCAASGYISTSIAMGWYRQAPGKERELVASFGGGAITNYADSVKGFTISRDNGKNSVYLQMNSLKPEDTAVYYCAVYHGDRGYYSYWGQGTQVTVSS | low polyreactivity
QDQLVESGGGLVQAGGSLRLSCAAYGSTSYTNAMGWYRQAPGKERELVAGITRSGDSTYYADSVKGRFTISRDTAKNTVYLQMKSLKPEDTAVYYCAADIGDYWLGYYTGYYYLGQGTQVTVSS | high polyreactivity
QVQLVESGGGLVQAGGSLRLSCAASGRIFRYYAMGWYRQAAGKERELVAAIRYRSGGTSYADSVKGRFTISRDNAKNTVYLQMNSLKPEDTAVYYCNADKRLRGHGYDYWGQGTQVTVSS | high polyreactivity
QVQLVESGGGLVQAGGSLRLSCAASGSTFDDYAMGWYRQAPGKERELVAAIYWSSGRTYYADSVKGRFTISRDNAKNTVYLQMNSLKPEDTAVYYCAARNRYDRLRYYYWGQGTQVTVSS | high polyreactivity
QVQLGESGGGLVQAGGSLRLSCAASGLIFPRYAMGWYRQAPGKERELVAAITRGGSTYYADSVKGRFTISRDNAKNTVYVQMNSLKPEDSAVYYCNDELPVHWSWYDYWGQGTQVTVSS | low polyreactivity
QVQLVESGGGLVQAGGSLRLSCAASGRTFGGYAMVWYRQAPGKERELVATITKNGGSTYYADSVKGRFTISRDNAKNTVYVQMNSLKPEVTAVYYCATGSRGYKASPQWRDYWGQGTQVTVSS | high polyreactivity
QVQLVESGGGLVQAGGSLRLSCAASGRTFSVNDMGWYRQAPGKERELVAAISFSGGSTYYADSVKGRFTISRDNAKNTVYLQMNSLKPEDTAVYYCAARVRWWSPGGYWGQGTQVTVSS | high polyreactivity

Source: the nanobody polyreactivity screen of Harvey et al. (2022)
